Data reported in the supplement of paper PMC10567573.

B1: TRIB1 (parent)
chain: SYVRSRKRLREEEAARLFKQIVSA
B2: TRIM35 (parent)
chain: DKELLCCSCQADPRHQGHRVQPVK

Variants of: B1
Test: protein stability index of a GFP-peptide fusion (GPS, HEK-293T) (PSI 1-6); higher = more stable
Conditions: c terminus: a fixed tail appended
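Also: lentivirally expressed fusions sorted by FACS into six bins by GFP to DsRed ratio, PSI derived from sequencing read proportions per bin multiplied by bin number.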

Protein stability index of substitutions, site by site:
S5: D 2.24; F 2.4; M 1.92; G 3.13; C 1.62; K 2.31; I 1.73; Y 2.65; T 2.21; A 1.76; H 1.94; N 2.12; P 2.27
E13: G 3.21; S 2.05; F 2.37; H 2.47; T 1.74; L 2.54; K 2.94; R 2.85; I 2.52; C 2.05; Y 2.14; P 2.41; Q 2.5; M 2.21; N 2.53; A 1.27; D 1.73
Y2: N 2.83; V 2.33; I 1.78; T 2.38; G 1.83; W 1.25; F 1.54
Q20: I 1.43; A 1.8; M 2.17; W 1.46; P 3.03; H 1.54; R 1.95; V 1.04; L 1.32; C 1.43; Y 1.13; D 2.08; S 2.27; N 2.64; F 1.61
E11: A 2.05; Q 1.9; N 2.13; T 2.44; M 1.66; I 1.4; R 1.54; V 1.75; F 3.54; H 2.41; D 2.17; P 1.85; S 2.69; Y 1.22; W 2.05; G 1.33
V3: D 2.05; I 1.69; T 2.12; Y 1.98; S 2.36; L 2.08; H 1.22; A 1.68; W 1.61; R 2.63; M 1.58; F 2.64; N 2.08
S23: A 2.01; L 2.18; E 2.56; N 2.32; P 2.99; Q 1.94; W 1.07; K 2.3; Y 1.73; H 1.8; D 3.05; I 1.48; G 1.9; F 2.07
R4: H 2.56; D 2.44; F 1.22; M 2.12; T 1.8; N 2.76; S 1.87; V 2.28; C 1.7; I 1.57; P 1.77; E 2.76
R8: S 1.99; C 2.05; F 1.48; Q 2.38; N 2.6; K 2.49; E 3.2; P 2.09; D 1.78; I 2.3; Y 1.99
L17: Y 2.61; C 2.52; D 3.46; H 2.48; V 2.98; E 3.46; R 2.1; F 1.6; W 2.24; A 2.49; K 2.61; P 3.97; G 3.72; T 2.87; N 3.21; S 2.62; Q 2.1
A15: M 2.68; F 1.59; G 2.56; Q 2.15; E 2.56; T 2.08; Y 1.71; S 2.36; R 2.62; P 3.43; K 1.96; V 1.84; D 2.32; L 2.05; I 1.4
R10: P 2.28; M 1.35; Q 2.22; D 2.28; N 2.54; I 1.83; A 2.94; F 2.04; K 3.08; L 2.23; H 2.63; T 2.67; C 1.5; W 2.12
I21: M 2.47; S 3.66; D 4.08; R 3.8; W 3.98; K 3.27; E 3.23; H 2.4; P 3.76; N 4.01; Y 2.06; T 3.48; F 2.2
A24: E 1.99; S 2.08; K 2.97; Q 2.18; T 2.47; C 2.99; F 2.26; G 3.39; H 2.58; Y 2.32; I 2.88; P 2.63; L 1.65; D 2.76
S1: M 1.82; E 1.5; V 1.65; K 2.98; R 1.95; N 2.2
A14: F 2.34; P 2.56; T 2.83; L 2.03; M 1.81; K 2.64; H 2.26; Q 2.99; C 2.24; W 2.11; V 2.09; Y 2.18; S 3.24; D 1.59; N 1.89; I 2.4; R 3.17
R6: K 2.63; L 1.85; A 1.89; C 1.85; D 2.99; N 1.81; Q 1.88; F 1.42; I 2; H 2.33; G 1.72; M 1.54; W 1.97; V 1.95; T 2.07
F18: Q 4.07; P 3.99; D 3.83; M 3.34; S 3.42; A 3.44; E 3.02; W 2.56; H 4.19; V 2.86; I 2.06; C 3.31; L 1.52
E12: K 2.27; Q 1.98; N 2.61; Y 2.37; H 3.01; T 2.03; D 1.9; P 2.03; A 2.16; M 2.48; C 1.76; L 2; I 2.65
L9: V 1.75; M 3.22; P 1.86; K 2.25; H 2.24; Y 2; I 3.23; Q 2.3; R 2.07; S 2.44; F 1.68
V22: N 2.86; L 2.54; C 2.13; S 2.62; D 3.22; R 3.3; G 3.11; Q 3.34; M 2.45; W 3.04
R16: V 2.53; D 2.17; N 2.58; I 1.37; Q 2.63; E 2.87; M 2.52; S 1.72; A 1.9; K 2.31; P 3.39; Y 2.32; L 1.93; G 2.41; H 2.2; T 2.57
K7: A 2.06; S 2.53; Q 2.02; N 2.15; C 2.34; T 2.52; F 2.12; Y 1.93; E 2.5
K19: L 1.33; Q 2.21; F 2.71; I 2.91; D 2.25; S 2.31; N 1.7; C 2.34; H 1.69; Y 2.02

Variants of: B2
Test: as above
Conditions: c terminus: a fixed tail appended

Protein stability index, by site and new letter:
K2: C 4.2; A 3.54; D 3.46; E 4.01; F 2.63; G 3.05
D1: M 3.67; R 2.71; N 3.77; Q 3.59; K 3.46; V 3.06; A 3.15; P 3.49; I 2.38; F 2.79; W 1.87; E 4.13; Y 2.11; T 3.71; C 3.49; H 3.02; S 3.31
